Measured values as given in US20070172470A1, “Phosphatase regulation of nucleic acid transcription” (The Regents of the University of California, priority 2003, published 2007).

Columns and labels:
[1] = tested on: ElALuc, pGL3-Luc and Gal4-TATA-Luc constructs; assay: Luciferase reporter assay, basal promoter activity; assay type: cell-based, human; settings: cotransfected
Text: (§1) Gal4-DNA binding domain-SCP1 fusion protein expression plasmids-were cotransfected in HEK293 cells with a Gal 4-TKLuc reporter plasmid and luciferase gene expression quantitated. In all panels, results of triplicate transfections are shown +/− SD. Data is expressed as fold-activation experimental/control). […] The indicated amounts of SCP1 or mutant SCP1 expression plasmids were cotransfected in HEK293 cells along with Gal 4-VP16 expression and Gal 4-TK-Luc reporter plasmids and luciferase activity was quantitated. […] The indicated receptor expression plasmids were cotransfected with their cognate promoter-reporter plasmids with or without SCP1 or mutant SCP1 expression plasmids. Cells were treated or untreated with receptor-specific ligands as described infra. […] The indicated concentrations of SCP1 and mutant SCP1 expression plasmids were cotransfected with LMX1 and E47 expression plasmids and the rat insulin 1 promoter-luciferase reporter gene. Luciferase activity was measured as described.
(§2) Tissue Culture and Transfections: Human 293, COS7 and CV1 cells were grown at 37° C. in DMEM supplemented with 10% normal calf serum (BRL). Sub-confluent cells were transfected in 6 well tissue culture dishes using Effectene (Qiagen) according to the manufacturer's instructions. Reporter and activator plasmids (100 ng each) and Flag SCP1 (80 ng) or its mutant were used per well. […]

RNAP IIO = biological target: T1, RNAP IIO (Bos taurus, UniProt G3MZY8); assay: CTD phosphatase assay with RNAP IIO as substrate; assay type: biochemical, calf
T1 construct: Calf thymus RNAP IIA was purified; from tissue; host or cells: calf thymus
Procedure: FIGS. 2C and 2D show a CTD phosphatase assay of FCP1 and SCP1 on GST-CTDo and RNAP IIO prepared by MAPK2/ERK2. Increasing amounts of FCP1 or GST-SCP1 214 were assayed in the presence of 75 fmol GST-CTDo (lanes 1-6), 75 fmol RNAP IIO (lanes 7-12), or 75 fmol GST-CTDo and 75. fmol RNAP IIO (lanes 13-18). Both GST-CTDo and RNAP IIO substrates were prepared by the in vitro phosphorylation of CKII-labeled GST-CTDa or RNAP IIA by MAPK2/ERK2. All reactions were carried out in the presence of 7 pmol RAP74. CTD dephosphorylation of both GST-CTDo and RNAP IIO is shown by the increase in mobility of GST-CTDo to GST-CTDa and subunit IIo to IIa, respectively. The difference in the intensity of radiolabeled GST-CTDoand that of radiolabeled subunit IIo is not a reflection of a difference in the amount of substrates present, but of the higher efficiency with which CKII incorporates radiolabeled phosphates onto the most C-terminal serine of GST-CTDa compared to subunit. IIa.
Increasing amounts of GST-SCP1 214 were assayed in the presence of 3.7 fmol RNAP IIO prepared by CTDK1/CTDK2, TFIIH, P-TEFb, MAPK2/ERK2 and Cdc2 kinase. All reactions were carried out in-the presence of 7 pmol. RAP74. CTD dephosphorylation of RNAP IIO isozymes. by qSTSCP1 214 is shown by an increase in mobility of subunit IIo to that of IIa. The results are summarized in the graph showing the percent of RNAP IIO remaining as a function of increasing SCP1 concentrations.
Preparation and Purification of ^32P-RNAP IIO Isozymess and ^32P-GST-CTDo: Calf thymus RNAP IIA was purified by the method of Hodo and Blatti (30) with modifications as described by Kang and Dahmus (31). Specific isozymes of ^32p-labeled RNAP IIO were prepared by phosphorylation at the most C-terminal serine (CKII site) in the largest subunit of purified RNAP IIA with recombinant CKII and […], followed by CTD phosphorylation in the presence of 2 mM ATP with either purified CTDK1/CTDK2, TFIIH, P-TEFb, recombinant MAPK2/ERK2 or recombinant Cdc2 kinase. The RNAP IIO isozymes were individually purified over a DE53 column with a step elution of 500 mM KCl (28). Because only the most C-terminal serine is labeled with ^32p and lies outside. the consensus repeat, dephosphorylation by CTD phosphatase results in an electrophoretic mobility shift in SDS-PAGE of subunit IIo to the position of subunit IIa without the loss of label. Similarly, ^32P-labeled GST-CTDo was prepared from GST-CTDa by CKII followed by MAPK2/ERK2. GST-CTDo was purified over a glutathione-agarose column with a step elution of 15 mM glutathione.
CTD phosphatase assays utilizing RNAP IIO and GST-CTDo as substrate were performed as described previously (32) with minor modifications. Reactions were performed in 20 μl of CTD phosphatase buffer (50 mM Tris-HCl, pH 7.9, 10 mM MgCl2, 20% glycerol, 0.025% Tween 80, 0.1 mM EDTA, 5 mM DTT) in the presence of 20 mM KCl. Each reaction contained specified amounts of GST-CTDo and/or RNAP IIO and was carried out in the presence of 7 pmol RAP74. Reactions were initiated by the addition of FCP1 or SCP1 and incubated at 30° C. for 30 minutes. Assays were terminated by the addition of 5× Laemmli buffer, and RNAP II subunits and GST-CTD were resolved on a 5% SDS-PAGE gel. The gel images were developed by autoradiography and scanned by Molecular Dynamics Image Scanner Storm 860 in the phosphor screen mode. Data were quantitatively analyzed by ImageQuant software.

[2] = tested on: glucocorticoid receptor activity on GRE-TK-Luc construct; assay: Luciferase reporter assay, dexamethasone-stimulated glucocorticoid receptor; assay type: cell-based, human; settings: 100 nM dexamethasone
Text: as §1, §2

[3] = tested on: T3 receptor activity on DR+4 TRE-TK-Luc reporter; assay: Luciferase reporter assay, ligand-activated T3 receptor; assay type: cell-based, human; settings: 100 nM T3, DR+4 TRE-TK-Luc
Text: as §1, §2

[4] = 3.7 fmol RNAP IIO, 7 pmol RAP74

B1: SCP1: small CTD phosphatase-1, full-length 261 aa human protein, SEQ ID NO:2 (protein, listed as Homo sapiens)
chain: MDSSAVITQISKEEARGPLRGKGDQKSAASQKPRSRGILHSLFCCVCRDDGEALPAHSGAPLLVEENGAIPKTPVQYLLPEAKAQDSDKICVVIDLDETLVHSSFKPVNNADFIIPVEIDGVVHQVYVLKRPHVDEFLQRMGELFECVLFTASLAKYADPVADLLDKWGAFRARLFRESCVFHRGNYVKDLSRLGRDLRRVLILDNSPASYVFHPDNAVPVASWFDNMSDTELHDLLPFFEQLSRVDDVYSVLRQPRPGS
reporter gene expression from basal promoter constructs [1]: no significant effect | dephosphorylation of RNAP IIO generated by Abl tyrosine kinase (RNAP IIO): unable to dephosphorylate | dephosphorylation of RNAP IIO generated by TFIIH (RNAP IIO; [4]): most efficiently dephosphorylates | dephosphorylation of RNAP IIO prepared with Cdc2 kinase (RNAP IIO; [4]): unable to dephosphorylate | dephosphorylation of RNAP IIO isozymes prepared with P-TEFb, MAPK2/ERK2 and CTDK1/CTDK2 (RNAP IIO; relative to RNAP IIO prepared with TFIIH): reduced rate | dexamethasone-stimulated glucocorticoid receptor activity [2]: inhibited | ligand-activated T3 receptor activity [3]: inhibited
